Results as given in IntAct's records for PubMed 15020713.

B1: EH domain-containing protein 1 (Homo sapiens), Q9H4M9 (parent)
chain: MFSWVSKDARRKKEPELFQTVAEGLRQLYAQKLLPLEEHYRFHEFHSPALEDADFDNKPMVLLVGQYSTGKTTFIRHLIEQDFPGMRIGPEPTTDSFIAVMHGPTEGVVPGNALVVDPRRPFRKLNAFGNAFLNRFMCAQLPNPVLDSISIIDTPGILSGEKQRISRGYDFAAVLEWFAERVDRIILLFDAHKLDISDEFSEVIKALKNHEDKIRVVLNKADQIETQQLMRVYGALMWSLGKIINTPEVVRVYIGSFWSHPLLIPDNRKLFEAEEQDLFKDIQSLPRNAALRKLNDLIKRARLAKVHAYIISSLKKEMPNVFGKESKKKELVNNLGEIYQKIEREHQISPGDFPSLRKMQELLQTQDFSKFQALKPKLLDTVDDMLANDIARLMVMVRQEESLMPSQVVKGGAFDGTMNGPFGHGYGEGAGEGIDDVEWVVGKDKPTYDEIFYTLSPVNGKITGANAKKEMVKSKLPNTVLGKIWKLADVDKDGLLDDEEFALANHLIKVKLEGHELPADLPPHLVPPSKRRHE
partner: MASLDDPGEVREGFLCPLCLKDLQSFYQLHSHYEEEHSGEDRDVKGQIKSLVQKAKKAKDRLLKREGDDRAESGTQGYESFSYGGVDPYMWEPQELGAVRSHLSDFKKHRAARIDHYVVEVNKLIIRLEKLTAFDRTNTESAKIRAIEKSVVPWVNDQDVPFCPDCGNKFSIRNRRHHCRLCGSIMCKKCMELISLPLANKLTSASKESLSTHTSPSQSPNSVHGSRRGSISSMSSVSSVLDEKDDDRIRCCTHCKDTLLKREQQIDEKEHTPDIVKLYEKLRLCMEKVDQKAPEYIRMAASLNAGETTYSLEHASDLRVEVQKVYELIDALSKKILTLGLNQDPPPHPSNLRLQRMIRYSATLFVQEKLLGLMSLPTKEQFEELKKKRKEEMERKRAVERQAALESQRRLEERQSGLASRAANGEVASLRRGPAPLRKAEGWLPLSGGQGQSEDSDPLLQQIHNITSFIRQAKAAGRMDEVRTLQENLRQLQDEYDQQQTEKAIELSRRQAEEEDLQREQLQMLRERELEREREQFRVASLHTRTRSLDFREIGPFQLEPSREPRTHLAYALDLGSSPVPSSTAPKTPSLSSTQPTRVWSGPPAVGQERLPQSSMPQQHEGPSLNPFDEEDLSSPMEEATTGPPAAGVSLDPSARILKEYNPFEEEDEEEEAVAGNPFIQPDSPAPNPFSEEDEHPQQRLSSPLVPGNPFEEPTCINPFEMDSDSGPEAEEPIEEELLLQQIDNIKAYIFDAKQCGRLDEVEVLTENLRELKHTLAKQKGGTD
B2: Rabenosyn-5 (Homo sapiens), Q9H1K0 (parent)
chain: B1 partner
partner: B1 chain

Variants of: B1
Conditions: with rbns5_human RBSN

effect of a mutation on the interaction	Variant
disrupting interaction	W485A

Variants of: B2
Conditions: with ehd1_human EHD1, Q9H4M9

effect of a mutation on the interaction	Variant
disrupting interaction strength	N626A;F628A;N662A;F664A
decreasing interaction strength	N626A;F628A
decreasing interaction strength	N662A;F664A
